From article PMC3069017 (Molecular Biology of the Cell, 2011) come the findings set out here.

In this assay the target is T1, GST-IFT54 (mouse, UniProt Q149C2 1-625).
T1 sequence (looked up): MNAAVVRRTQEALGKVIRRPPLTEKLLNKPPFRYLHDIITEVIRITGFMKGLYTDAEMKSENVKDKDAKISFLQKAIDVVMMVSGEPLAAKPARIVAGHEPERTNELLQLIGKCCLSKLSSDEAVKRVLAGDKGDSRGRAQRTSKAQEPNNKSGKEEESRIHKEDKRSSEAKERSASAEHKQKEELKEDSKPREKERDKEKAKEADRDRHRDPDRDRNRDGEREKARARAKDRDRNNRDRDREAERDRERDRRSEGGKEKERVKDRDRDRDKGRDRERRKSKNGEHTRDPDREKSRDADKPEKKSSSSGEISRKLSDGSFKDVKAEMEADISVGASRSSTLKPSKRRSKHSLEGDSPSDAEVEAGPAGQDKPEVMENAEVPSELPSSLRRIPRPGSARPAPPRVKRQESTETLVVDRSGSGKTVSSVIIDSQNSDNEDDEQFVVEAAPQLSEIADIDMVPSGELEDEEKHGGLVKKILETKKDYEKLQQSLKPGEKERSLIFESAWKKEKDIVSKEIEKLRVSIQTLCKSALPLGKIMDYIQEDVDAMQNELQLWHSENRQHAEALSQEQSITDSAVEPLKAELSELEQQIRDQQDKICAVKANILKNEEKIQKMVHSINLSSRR
The assay can be described thus: pull-down.

B1: purified, untagged IFT20 (natural protein, mouse, UniProt Q61025-1 1-132, looked up)
chain: MAKDILGEAGLHFDELNKLRVLDPEVTQQTVELKEECKDFVDKIGQFQKIVGGLIELVDQLAKEAENEKMKAIGARNLLKSIAKQREAQQQQLQALIAEKKTQLERYRVEYEALCKVEAEQNEFIDQFIFQK
Consider B1, for which the binding result was “binds”.
